According to the RNAGym collection of RNA variant scans (doi:10.7554/elife.90254):

B1: LINE1-full (parent)
chain: UACGUAGGUGGUUUUCCCCUGAUAGUGCUAAGGGGGCCUGGAAGUUUGGACUGGGCAGAGCUCAACACAGCGUGGCAAAGUGGCUGUGGCUAGACUGCCUCUCUGGAUUCCUCGUCACUCAGCAGGGCAUCUCUGAGAGAAAUGCC

Variants of: B1
Test: self-cleavage, relative activity (ratio to wild type); higher = more cleavage; in vitro, sequencing; the parent is a self-cleaving ribozyme

Variant	self-cleavage
UACGUAGGUGGUUUUCCCCUGAUAGUGCUAAGGGGGCCUGGAGGUCUGGACUGGGCAGAGCUCAACACAGCGUGGCAAAGUGGCUGUGGCUAGACUGCCUCUCUGGAUUCCUCGUCACUCAGCAGGGCAUCUCUGAGAGAAAUGCC [A43G U46C]	0.53
UACGUAGGUGGUUUUCCCCUGAUAGUGCUAAGGGGGCCUGGAGGUUUGGACUGGGCAGAGCUCAACACAGCGAGGCAAAGUGGCUGUGGCUAGACUGCCUCUCUGGAUUCCUCGUCACUCAGCAGGGCAUCUCUGAGAGAAAUGCC [A43G U73A]	1.53
UACGUAGGUGGUUUUCCCCUGAUAGUGCUAAGGGGGCCUGGAGGUUUGGACUGGGCAGAGCUCAACACAGCGCGGCAAAGUGGCUGUGGCUAGACUGCCUCUCUGGAUUCCUCGUCACUCAGCAGGGCAUCUCUGAGAGAAAUGCC [A43G U73C]	1.3
UACGUAGGUGGUUUUCCCCUGAUAGUGCUAAGGGGGCCUGGAGGUUUGGACUGGGCAGAGCUCAACACAGCGUGGCAAAGUGGCUGUGGCUAGACUGCCCCUCUGGAUUCCUCGUCACUCAGCAGGGCAUCUCUGAGAGAAAUGCC [A43G U100C]	1.65
UACGUAGGUGGUUUUCCCCUGAUAGUGCUAAGGGGGCCUGGAGGUUUGGACUGGGCAGAGCUCAACACAGCGUGGCAAAGUGGCUGUGGCUAGACAGCCUCUCUGGAUUCCUCGUCACUCAGCAGGGCAUCUCUGAGAGAAAUGCC [A43G U96A]	0.07
UACGUAGGUGGUUUUCCCCUGAUAGUGCUAAGGGGGCCUGGAGGUUUGGACUGGGCAGAGCUCAACACAGCGUGGCAAAGUGGCUGUGGCUAGACUGCCUCUCUGGAUCCCUCGUCACUCAGCAGGGCAUCUCUGAGAGAAAUGCC [A43G U109C]	1.92
UACGUAGGUGGUUUUCCCCUGAUAGUGCUAAGGGGGCCUGGAGGUUUGGACUGGGCAGAGCUCAACACAGCGUGGCAAAGUGGCUGUGGCUAGACUGCCUCUCUGGAUACCUCGUCACUCAGCAGGGCAUCUCUGAGAGAAAUGCC [A43G U109A]	1.46
UACGUAGGUGGUUUUCCCCUGAUAGUGCUAAGGGGGCCUGGAUGUUUGGACUGGGCAGAGCUCAACGCAGCGUGGCAAAGUGGCUGUGGCUAGACUGCCUCUCUGGAUUCCUCGUCACUCAGCAGGGCAUCUCUGAGAGAAAUGCC [A43U A67G]	0.56
UACGUAGGUGGUUUUCCCCUGAUAGUGCUAAGGGGGCCUGGAGGUUUGGACUGGGCAGAGCUCAACACAGCGUGGCAAAGUGGCUGUGGCUAGACUGCCUCUCUGGAUUCCUCGUCACUCAGCAGGGCAUCUCAGAGAGAAAUGCC [A43G U134A]	0.89
UACGUAGGUGGUUUUCCCCUGAUAGUGCUAAGGGGGCCUGGAUGUUUGGACUGGGCGGAGCUCAACACAGCGUGGCAAAGUGGCUGUGGCUAGACUGCCUCUCUGGAUUCCUCGUCACUCAGCAGGGCAUCUCUGAGAGAAAUGCC [A43U A57G]	0.89
UACGUAGGUGGUUUUCCCCUGAUAGUGCUAAGGGGGCCUGGAUGUUUGGACUGGGCAGAGCUCAGCACAGCGUGGCAAAGUGGCUGUGGCUAGACUGCCUCUCUGGAUUCCUCGUCACUCAGCAGGGCAUCUCUGAGAGAAAUGCC [A43U A65G]	0.02
UACGUAGGUGGUUUUCCCCUGAUAGUGCUAAGGGGGCCUGGAGGUUUGGACUGGGCAGAGCUCAACACAGCGUGGCAAAGUGGCUGCGGCUAGACUGCCUCUCUGGAUUCCUCGUCACUCAGCAGGGCAUCUCUGAGAGAAAUGCC [A43G U87C]	0.32
UACGUAGGUGGUUUUCCCCUGAUAGUGCUAAGGGGGCCUGGAGGUUUGGACUGGGCAGAGCUCAACACAGCGUGGCAAAGUGGCAGUGGCUAGACUGCCUCUCUGGAUUCCUCGUCACUCAGCAGGGCAUCUCUGAGAGAAAUGCC [A43G U85A]	0.1
UACGUAGGUGGUUUUCCCCUGAUAGUGCUAAGGGGGCCUGGAGGUUUGGACUGGGCAGAGCUCAACACAGCGUGGCAAAGUGGCCGUGGCUAGACUGCCUCUCUGGAUUCCUCGUCACUCAGCAGGGCAUCUCUGAGAGAAAUGCC [A43G U85C]	0.2
UACGUAGGUGGUUUUCCCCUGAUAGUGCUAAGGGGGCCUGGAGGUUUGGACUGGGCAGAGCUCAACACAGCGUGGCAAAGUGGCGGUGGCUAGACUGCCUCUCUGGAUUCCUCGUCACUCAGCAGGGCAUCUCUGAGAGAAAUGCC [A43G U85G]	0.15
UACGUAGGUGGUUUUCCCCUGAUAGUGCUAAGGGGGCCUGGAUGUUUGGACUGGGCAGAGCUCAACACGGCGUGGCAAAGUGGCUGUGGCUAGACUGCCUCUCUGGAUUCCUCGUCACUCAGCAGGGCAUCUCUGAGAGAAAUGCC [A43U A69G]	0.59
UACGUAGGUGGUUUUCCCCUGAUAGUGCUAAGGGGGCCUGGAGGUUUGGACUGGGCAGAGCUCAACACAGCGUGGCAAAGUGGCUGUGGCUAGACUGCCUCUCUGGAUUCCUCGUCACUCAGCAGAGCAUCUCUGAGAGAAAUGCC [A43G G126A]	1.16
UACGUAGGUGGUUUUCCCCUGAUAGUGCUAAGGGGGCCUGGAGGUUUGGACUGGGCAGAGCUCAACACAGCGUGGCAAAGUGGCUGUGGCUAGACUGCCUCUCUGGAUUCCUCGUCACUCAACAGGGCAUCUCUGAGAGAAAUGCC [A43G G122A]	0.19
UACGUAGGUGGUUUUCCCCUGAUAGUGCUAAGGGGGCCUGGAUGUUUGGACUGGGCAGAGCUCAACACAGCGUGGCAAAGUGGCUGUGGCUAGUCUGCCUCUCUGGAUUCCUCGUCACUCAGCAGGGCAUCUCUGAGAGAAAUGCC [A43U A94U]	0.24
UACGUAGGUGGUUUUCCCCUGAUAGUGCUAAGGGGGCCUGGAUGUUUGGACUGGGCAGAGCUCUACACAGCGUGGCAAAGUGGCUGUGGCUAGACUGCCUCUCUGGAUUCCUCGUCACUCAGCAGGGCAUCUCUGAGAGAAAUGCC [A43U A64U]	0.43

Variant	self-cleavage
UACGUAGGUGGUUUUCCCCUGAUAGUGCUAAGGGGGCCUGGAGGUUUGGACUGGGCAGAGCUCAACACAGCGUGGCAAAGUGGCUGUGGCUAGACUGCCUCUCUGGACUCCUCGUCACUCAGCAGGGCAUCUCUGAGAGAAAUGCC [A43G U108C]	1.56
UACGUAGGUGGUUUUCCCCUGAUAGUGCUAAGGGGGCCUGGAGGUUUGGACUGGGCAGAGCUCAACACAGCGUGGCAAAGUGGCUGUGGCCAGACUGCCUCUCUGGAUUCCUCGUCACUCAGCAGGGCAUCUCUGAGAGAAAUGCC [A43G U91C]	0.37
UACGUAGGUGGUUUUCCCCUGAUAGUGCUAAGGGGGCCUGGAGGUUCGGACUGGGCAGAGCUCAACACAGCGUGGCAAAGUGGCUGUGGCUAGACUGCCUCUCUGGAUUCCUCGUCACUCAGCAGGGCAUCUCUGAGAGAAAUGCC [A43G U47C]	1.31
UACGUAGGUGGUUUUCCCCUGAUAGUGCUAAGGGGGCCUGGAGGUUUGGACAGGGCAGAGCUCAACACAGCGUGGCAAAGUGGCUGUGGCUAGACUGCCUCUCUGGAUUCCUCGUCACUCAGCAGGGCAUCUCUGAGAGAAAUGCC [A43G U52A]	1.43
UACGUAGGUGGUUUUCCCCUGAUAGUGCUAAGGGGGCCUGGAGGUUUGGACCGGGCAGAGCUCAACACAGCGUGGCAAAGUGGCUGUGGCUAGACUGCCUCUCUGGAUUCCUCGUCACUCAGCAGGGCAUCUCUGAGAGAAAUGCC [A43G U52C]	1.13
UACGUAGGUGGUUUUCCCCUGAUAGUGCUAAGGGGGCCUGGAGGUUUGGACUGGGCAGAGCUCAACACAGCGUGGCAAAGUGGCUGUGGCUAGACUGCCUCUCUGGAUUCCUCGUCACUCAGCAGGGCAUCUCUGAGAGAAAGGCC [A43G U143G]	1.42
UACGUAGGUGGUUUUCCCCUGAUAGUGCUAAGGGGGCCUGGAGGUUUGGACUGGGCAGAGCUCAACACAGCGUGGCAAAGUGGCUGUGGCUAGACUGCCUCUCUGGAUUCCUCGUCACUCAGCAGGGCAUCUCUGAGAGAAACGCC [A43G U143C]	1.36
UACGUAGGUGGUUUUCCCCUGAUAGUGCUAAGGGGGCCUGGAGGUUUGGACUGGGCAGAGCUCAACACAGCGUGGCAAAGUGGCUGUGGCUAGACUGCCUCUCUGGAUUCCUCGUCACUCAGCAGGGCAUCUCUGAGAGAAAUACC [A43G G144A]	1.39
UACGUAGGUGGUUUUCCCCUGAUAGUGCUAAGGGGGCCUGGAGGUUUGGACUGGGCAGAGCUCAACACAGCGUGGCAAAGUGGCUGUGGCUAGACUGCCUCUCCGGAUUCCUCGUCACUCAGCAGGGCAUCUCUGAGAGAAAUGCC [A43G U104C]	1.68
UACGUAGGUGGUUUUCCCCUGAUAGUGCUAAGGGGGCCUGGAGGUUUGGACUGGGCAGAGCUCAACACAGCGUGGCAAAGUGGCUGUGGCUAGACUGCCUCUCGGGAUUCCUCGUCACUCAGCAGGGCAUCUCUGAGAGAAAUGCC [A43G U104G]	1.78
UACGUAGGUGGUUUUCCCCUGAUAGUGCUAAGGGGGCCUGGAUGUUUGGACUGGGCAGAGCUCAACACAGCGUGGCUAAGUGGCUGUGGCUAGACUGCCUCUCUGGAUUCCUCGUCACUCAGCAGGGCAUCUCUGAGAGAAAUGCC [A43U A77U]	1.02
UACGUAGGUGGUUUUCCCCUGAUAGUGCUAAGGGGGCCUGGAGGUUUGGACUGGGCAGAGCCCAACACAGCGUGGCAAAGUGGCUGUGGCUAGACUGCCUCUCUGGAUUCCUCGUCACUCAGCAGGGCAUCUCUGAGAGAAAUGCC [A43G U62C]	0.1
UACGUAGGUGGUUUUCCCCUGAUAGUGCUAAGGGGGCCUGGAGGUUUGGACUGGGCAGAGCUCAACACAGCGUGGCAAAGUGGCUGUGGCUAGACUGCCUCUCUGGAUUCCACGUCACUCAGCAGGGCAUCUCUGAGAGAAAUGCC [A43G U112A]	1.4
UACGUAGGUGGUUUUCCCCUGAUAGUGCUAAGGGGGCCUGGAGGUUUGGACUGGGCAGAGCUCAACACAGCGUGGCAAAGUGGCUGUGGCUAGACUGCCUCUCUGGAUUCCCCGUCACUCAGCAGGGCAUCUCUGAGAGAAAUGCC [A43G U112C]	1.2
UACGUAGGUGGUUUUCCCCUGAUAGUGCUAAGGGGGCCUGGAGGCUUGGACUGGGCAGAGCUCAACACAGCGUGGCAAAGUGGCUGUGGCUAGACUGCCUCUCUGGAUUCCUCGUCACUCAGCAGGGCAUCUCUGAGAGAAAUGCC [A43G U45C]	1.1
UACGUAGGUGGUUUUCCCCUGAUAGUGCUAAGGGGGCCUGGAGGUUUGGACUGGGCAGAGCUCAACACAGCGUGGCAAAGCGGCUGUGGCUAGACUGCCUCUCUGGAUUCCUCGUCACUCAGCAGGGCAUCUCUGAGAGAAAUGCC [A43G U81C]	1.32
UACGUAGGUGGUUUUCCCCUGAUAGUGCUAAGGGGGCCUGGAGGUUUGGACUGGGCAGAGCUCAACACAGCGUGGCAAAGUGGCUGUGGCUAGACUGCCUCUCUGGAUUCCUCGUCACCCAGCAGGGCAUCUCUGAGAGAAAUGCC [A43G U119C]	1.51
UACGUAGGUGGUUUUCCCCUGAUAGUGCUAAGGGGGCCUGGAGGUUUGGACUGGGCAGAGCUCAACACAGCGUGGCAAAGUGGCUGUGGCUAGACUGCCUCUCUGGAUUCCUCGUCACUCAGCAGGACAUCUCUGAGAGAAAUGCC [A43G G127A]	0.98
UACGUAGGUGGUUUUCCCCUGAUAGUGCUAAGGGGGCCUGGAGGUUUGGACUGGGCAGAGCUCAACACAGCGUGGCAAAGUGGCUGUGGCUAGACUGCCUCUCUGGAUUCCUCGUCACUCAGCAGGCCAUCUCUGAGAGAAAUGCC [A43G G127C]	0.77
